Test results: patent publication US6635450

T1: recombinant mouse Kip1 with a C-terminal hexahistidine sequence (expressed in BL21(DE3) bacteria from pET21a)
T1 chain: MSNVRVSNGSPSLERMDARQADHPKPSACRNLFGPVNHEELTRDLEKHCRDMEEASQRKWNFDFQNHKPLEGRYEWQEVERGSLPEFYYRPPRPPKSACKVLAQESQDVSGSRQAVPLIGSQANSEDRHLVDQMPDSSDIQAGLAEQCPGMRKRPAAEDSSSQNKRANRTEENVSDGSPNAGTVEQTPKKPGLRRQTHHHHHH

T2: p27 protein, the 27 kD cyclin E-Cdk2 binding protein of Mv1Lu mink epithelial cells (endogenous)
T2 chain: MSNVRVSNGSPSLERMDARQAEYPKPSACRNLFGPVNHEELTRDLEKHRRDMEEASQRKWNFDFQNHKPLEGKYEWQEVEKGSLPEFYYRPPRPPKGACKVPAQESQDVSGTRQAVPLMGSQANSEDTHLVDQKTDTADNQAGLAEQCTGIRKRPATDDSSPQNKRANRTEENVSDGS

T3: Kip1 (28-79), 52-amino acid peptide with a C-terminal hexahistidine tag
T3 chain: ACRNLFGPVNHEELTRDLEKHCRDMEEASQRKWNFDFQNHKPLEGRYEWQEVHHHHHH

B1: cyclin D2-Cdk4 complex (baculovirus produced, co-infected Sf9 cells) (protein)
chain 1: MELLCCEVDPVRRAVPDRNLLEDRVLQNLLTIEERYLPQCSYFKCVQKDIQPYMRRMVATWMLEVCEEQKCEEEVFPLAMNYLDRFLAGVPTPKTHLQLLGAVCMFLASKLKETIPLTAEKLCIYTDNSVKPQELLEWELVVLGKLKWNLAAVTPHDFIEHILRKLPQQKEKLSLIRKHAQTFIALCATDFKFAMYPPSMIATGSVGAAICGLQQDDEVNTLTCDALTELLAKITHTDVDCLKACQEQIEALLLNSLQQFRQEQHNAGSKSVEDPDQATTPTDVRDVDL
chain 2: MAATRYEPVAEIGVGAYGTVYKARDPHSGHFVALKSVRVPNGGAAGGGLPVSTVREVALLRRLEAFEHPNVVRLMDVCATSRTDRDIKVTLVFEHIDQDLRTYLDKAPPPGLPVETIKDLMRQFLSGLDFLHANCIVHRDLKPENILVTSNGTVKLADFGLARIYSYQMALTPVVVTLWYRAPEVLLQSTYATPVDMWSVGCIFAEMFRRKPLFCGNSEADQLGKIFDLIGLPPEDDWPREVSLPRGAFAPRGPRPVQSVVPEMEESGAQLLLEMLTFNPHKRISAFRALQHSYLHKEESDAE
B2: cyclin D1-Cdk4 complex (baculoviral, co-infected Sf9 cells) (protein)
chain 1: MEHQLLCCEVETIRRAYPDTNLLNDRVLRAMLKTEETCAPSVSYFKCVQKEIVPSMRKIVATWMLEVCEEQKCEEEVFPLAMNYLDRFLSLEPLKKSRLQLLGATCMFVASKMKETIPLTAEKLCIYTDNSIRPEELLQMELLLVNKLKWNLAAMTPHDFIEHFLSKMPEADENKQTIRKHAQTFVALCATDVKFISNPPSMVAAGSVVAAMQGLNLGSPNNFLSCYRTTHFLSRVIKCDPDCLRACQEQIEALLESSLRQAQQNVDPKATEEEGEVEEEAGLACTPTDVRDVDI
chain 2: B1 chain 2
B3: cyclin D3-Cdk4 complex (baculoviral, co-infected Sf9 cells) (protein)
chain 1: MELLCCEGTRHAPRAGPDPRLLGDQRVLQSLLRLEERYVPRASYFQCVQKEIKPHMRKMLAYWMLEVCEEQRCEEDVFPLAMNYLDRYLSCVPTRKAQLQLLGTVCLLLASKLRETTPLTIEKLCIYTDQAVAPWQLREWEVLVLGKLKWDLAAVIAHDFLALILHRLSLPSDRQALVKKHAQTFLALCATDYTFAMYPPSMIATGSIGAAVLGLGACSMSADELTELLAGITGTEVDCLRACQEQIEAALRESLREAAQTAPSPVPKAPRGSSSQGPSQTSTPTDVTAIHL
chain 2: B1 chain 2
B4: Cdk4 alone (baculoviral, Sf9 lysate) (protein)
chain: B1 chain 2

Legend:
[1] = molecular target: T1, recombinant mouse Kip1 with a …
[2] = molecular target: T2, p27 protein, the 27 kD cyclin E-Cdk2 …
[3] = molecular target: T3, Kip1 (28-79), 52-amino acid peptide …

Protein	Rb kinase activity (phosphorylation of a GST-Rb fusion product) [1]	activation of Cdk2 by cyclin E in extracts (cyclin E-associated histone H1 kinase activity) [2]	Rb phosphorylation [3]	lowering of the cyclin E threshold for Cdk2 activation (cyclin E-associated histone H1 kinase activity) [2]
B1	Addition of Kip1 to cyclin E-Cdk2, cyclin A-Cdk2 or cyclin D2-Cdk4 complexes inhibited their ability to phosphorylate a GST-Rb fusion product	Addition of cyclin D2-Cdk4 complexes, but neither subunit alone, to extracts from contact inhibited and TGF-β arrested cells allowed cyclin E to activate Cdk2 to a level equivalent to that observed in extracts from proliferating cells	inhibited cyclin E-Cdk2 or cyclin D2:Cdk4 less effectively	
B2				Equal amounts of cyclin Di-Cdk4 and cyclin D3-Cdk4 complexes, as estimated by immunoblotting of Sf9 lysates, were much less effective in lowering the cyclin E threshold for Cdk2 activation
B3				Equal amounts of cyclin Di-Cdk4 and cyclin D3-Cdk4 complexes, as estimated by immunoblotting of Sf9 lysates, were much less effective in lowering the cyclin E threshold for Cdk2 activation
B4		Addition of cyclin D2-Cdk4 complexes, but neither subunit alone, to extracts from contact inhibited and TGF-β arrested cells allowed cyclin E to activate Cdk2		
